Data taken from PMC6491591 (2019).

B1: Gonadotropin Regulated Testicular Helicase (GRTH/DDX25), wild type, V5-His tagged [human] / Protein Kinase A catalytic subunit alpha (PKA-Cα), overexpressed [not stated] (parent complex)
chain 1: MASLLWGGDAGAAESERLNSHFSNLSQPRKNLWGIKSTAVRNIDGSINNINEDDEEDVVDLAANSLLNKLIHQSLVESSHRVEVLQKDPSSPLYSVKTFEELRLKEELLKGIYAMGFNRPSKIQEMALPMMLAHPPQNLIAQSQSGTGKTAAFVLAMLSRVNALELFPQCLCLAPTYELALQTGRVVEQMGKFCVDVQVMYAIRGNRIPRGTDITKQIIIGTPGTVLDWCFKLKLIDLTKIRVFVLDEADVMIDTQGFSDHSIRIQRALPSECQMLLFSATFEDSVWHFAERIIPDPNVIKLRKEELTLNNIRQYYVLCEHRKDKYQALCNIYGSITIGQAIIFCQTRRNAKWLTVEMIQDGHQVSLLSGELTVEQRASIIQRFRDGKEKVLITTNVCARGIDVKQVTIVVNFDLPVKQGEEPDYETYLHRIGRTGRFGKKGLAFNMIEVDELPSLMKIQDHFNSSIKQLNAEDMDEIEKIDY
chain 2: not shown

Variants of: B1
Test: co-immunoprecipitation (IP: V5 antibody), western blot band intensity quantified with ImageJ; COS-1 cells co-transfected with GRTH-V5 and PKA-Cα; read off a plot

| Variant | response |
| --- | --- |
| chain 1 T239A | ~1.3 Arbitrary units |
| chain 1 E165A, chain 1 K240A | ~1 Arbitrary units |
| chain 1 E165A | ~1.2 Arbitrary units |

Variants of: B1
Test: co-immunoprecipitation (IP: PKA-Cα antibody), western blot band intensity quantified with ImageJ; COS-1 cells co-transfected with GRTH-V5 and PKA-Cα; read off a plot

| Variant | response |
| --- | --- |
| chain 1 T239A | ~1.2 Arbitrary units |
| chain 1 E165A, chain 1 K240A | ~1.2 Arbitrary units |
| chain 1 E165A | ~1.2 Arbitrary units |
